Test results as given in patent US20250340608A1 (PROTAGONIST THERAPEUTICS, published 2025).
Where two headings read alike, the source gives them in different places. Bridge positions count the residues as written; N and C are the ends. Ends that are not written are not given here. * marks the point of attachment. Isovaleryl = CC(C)CC(=O)*

Legend:
Assay in all cases: cell-based or functional assay
[1] = target: T1, human ferroportin (SLC40A1) fused in frame with GFP, stably expressed in HEK293 cells (human, UniProt Q9NP59 1-571)
T1 sequence (looked up): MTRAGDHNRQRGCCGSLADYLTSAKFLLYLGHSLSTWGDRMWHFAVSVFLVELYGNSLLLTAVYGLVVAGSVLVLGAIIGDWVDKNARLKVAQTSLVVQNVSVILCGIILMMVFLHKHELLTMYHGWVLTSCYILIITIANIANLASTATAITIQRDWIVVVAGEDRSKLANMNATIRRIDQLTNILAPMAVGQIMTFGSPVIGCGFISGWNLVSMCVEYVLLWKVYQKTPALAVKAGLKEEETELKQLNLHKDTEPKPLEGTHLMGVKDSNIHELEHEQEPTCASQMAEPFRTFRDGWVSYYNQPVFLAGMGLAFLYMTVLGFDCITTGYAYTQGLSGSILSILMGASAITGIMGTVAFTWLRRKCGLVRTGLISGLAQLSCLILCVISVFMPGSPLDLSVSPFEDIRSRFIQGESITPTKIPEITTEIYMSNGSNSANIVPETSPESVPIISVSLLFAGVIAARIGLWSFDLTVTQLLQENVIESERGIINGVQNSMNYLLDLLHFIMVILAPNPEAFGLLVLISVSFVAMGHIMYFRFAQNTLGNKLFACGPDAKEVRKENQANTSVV

[2] = target: T1, human ferroportin (SLC40A1) fused in …; remark: listed apart in the source
[3] = target: T1, human ferroportin (SLC40A1) fused in …; remark: listed apart in the source
[4] = target: T1, human ferroportin (SLC40A1) fused in …; remark: listed apart in the source
[5] = target: T2, human ferroportin (SLC40A1) fused in frame with GFP, stably expressed on HEK293 cells (human, UniProt Q9NP59 1-571)
T2 sequence (looked up): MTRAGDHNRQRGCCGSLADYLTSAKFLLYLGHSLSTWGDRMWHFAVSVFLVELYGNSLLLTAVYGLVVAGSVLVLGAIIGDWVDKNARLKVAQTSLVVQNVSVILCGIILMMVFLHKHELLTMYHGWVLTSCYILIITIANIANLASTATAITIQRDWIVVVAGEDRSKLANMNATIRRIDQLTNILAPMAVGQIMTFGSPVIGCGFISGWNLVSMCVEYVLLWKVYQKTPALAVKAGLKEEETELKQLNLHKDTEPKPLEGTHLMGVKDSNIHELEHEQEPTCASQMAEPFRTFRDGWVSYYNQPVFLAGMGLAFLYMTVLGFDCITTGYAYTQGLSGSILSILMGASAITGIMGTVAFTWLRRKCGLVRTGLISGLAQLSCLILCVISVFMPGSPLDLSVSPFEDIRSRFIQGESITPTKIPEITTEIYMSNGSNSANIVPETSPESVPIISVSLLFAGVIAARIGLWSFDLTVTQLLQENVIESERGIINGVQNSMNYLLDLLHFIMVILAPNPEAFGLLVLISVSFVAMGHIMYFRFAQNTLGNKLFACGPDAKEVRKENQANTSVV

[6] = target: T2, human ferroportin (SLC40A1) fused in …; remark: listed apart in the source
[7] = target: T2, human ferroportin (SLC40A1) fused in …; remark: listed apart in the source
[8] = target: T1, human ferroportin (SLC40A1) fused in …; remark: listed apart in the source
[9] = target: T1, human ferroportin (SLC40A1) fused in …; remark: listed apart in the source

B1: Compound 68 (peptide)
peptide: H-DTHFPICAFGPRSKGWVCM-NH2
modifications: disulfide 7-18 (inferred)
With B1 the “EC50 (nM) (n > 3)” value [1] was greater than 10000 nM.

B2: Compound 326 (peptide)
peptide: Isovaleryl-DTHFPCIKF-NH2
modifications: also: homodimer via disulfide between Cys6 of each monomer
For B2, the “% Activity At 1 uM” value [2] was 100%, the “EC50 (nM) (n = 3)” value [2] was 3 nM and the “Log dilutions EC50 (nM) (n > 3)” value [3] was 6 nM. For the same binder, the “EC50 (nM) (n > 3)” value [4] was 3 nM.

B3: Compound 345 (peptide)
peptide: Isovaleryl-DTHFPCIKFK-NH2
modifications: also: homodimer via disulfide between Cys6 of each monomer
In the case of B3, the “Log dilutions EC50 (nM) (n > 3)” value [3] is reported as 8 nM and the “EC50 (nM) (n > 3)” value [4] is reported as 8 nM.

B4: Mini-Hepcidin 1-9 (Hy-DTHFPICIF-NH2) (peptide)
peptide: H-DTHFPICIF-NH2
B4 was tested, and the “EC50 (nM) (n > 3)” value [5] was 712 nM and the “EC50 (nM), ferroportin degradation (loss of ferroportin-GFP fluorescence)” value [6] was 712 nM.

B5: RI-Mini Hepcidin (Hy-DPhe-DIle-DCys-DIle-DPro-DPhe-DHis-DThr-DAsp-NH2) (peptide)
peptide: FICIPFHTD
modifications: all residues are D-amino acids (retro inverse: reversed sequence in all D amino acids); C-terminal amide (-NH2)
With B5 the “EC50 (nM), ferroportin degradation (loss of ferroportin-GFP fluorescence)” value [6] was greater than 10000 nM.

B6: Compound 52 (DAHFPCIIF-NH2) (peptide)
peptide: H-DAHFPCIIF-NH2
With B6 the “EC50 (nM) (n > 3)” value [7] was 388 nM.

B7: Compound 346 (peptide)
peptide: Isovaleryl-DTHFPCIKFK-NH2
modifications: also: homodimer linked by DIG linker through Lys10 of each monomer
B7 was tested, and the “Log dilutions EC50 (nM) (n > 3)” value [3] was 15 nM.

B8: Compound 2 (peptide)
peptide: Isovaleryl-DTHFPICIFGPRSKGWVC-NH2
modifications: disulfide 7-18 (inferred)
For B8, the “Log dilutions EC50 (nM) (n > 3)” value [8] was 4.1 nM and the “In Vitro Activity EC50” value [9] was 5 nM.

B9: Compound 284 (ATHFPCIIF-NH2) (peptide)
peptide: H-ATHFPCIIF-NH2
B9 was tested, and the “EC50 (nM) (n > 3)” value [7] was greater than 1000 nM.

B10: Compound 352 (peptide)
peptide: Isovaleryl-DTHFPCIIFGPRSRGWVCK-NH2
modifications: disulfide 6-18 (inferred); not fully specified (residue 19); also: dimer through DIG linker on εN of Lys19 of each monomer
In the case of B10, the “Log dilutions EC50 (nM) (n > 3)” value [8] is reported as 5 nM.

B11: Compound 353 (peptide)
peptide: Isovaleryl-DTHFPICIFGPRSKGWVC-NH2
modifications: disulfide 7-18 (inferred); not fully specified (residue 14); also: dimer through DIG linker on εN of Lys14 of each monomer
B11 was tested, and the “Log dilutions EC50 (nM) (n > 3)” value [8] was 2.2 nM.

B12: Compound 3 (peptide)
peptide: Isovaleryl-DTHFPCIIFGPRSRGWVCK-NH2
modifications: disulfide 6-18 (inferred)
With B12 the “Log dilutions EC50 (nM) (n > 3)” value [8] was 15 nM and the “In Vitro Activity EC50” value [9] was 15 nM.

B13: Compound 348 (peptide)
peptide: H-DTHFPCIKF-NH2
modifications: also: homodimer with IDA-(β-Ala) linking moiety, attachment site not given here
In the case of B13, the “Log dilutions EC50 (nM) (n > 3)” value [3] is reported as 18 nM.

B14: Compound 349 (peptide)
peptide: Isovaleryl-DTHFPCIKF-NH2
modifications: also: homodimer with IDA-(β-Ala)-Palm linking moiety, attachment site not given here
With B14 the “Log dilutions EC50 (nM) (n > 3)” value [3] was 5 nM.

B15: Compound 351 (peptide)
peptide: DTHFPCIKF-NH2
modifications: not fully specified; printed as [PEG25]-(DTHFPCIKF-NH2)2
In the case of B15, the “Log dilutions EC50 (nM) (n > 3)” value [3] is reported as greater than 1000 nM.
